These results are taken from paper PMC10953559.

Several values for one entry are separate records, joined by “and”; a condition that tells them apart may be missing. Equal entries are not always repeated.

In the test the target is GroEL14 as used with the substrate proteins NanA and DapA (E. coli) (UniProt P0A6F5). Briefly: native MS; CE-MS; 6 µM GroEL14 with 6 or 12 µM substrate monomers, denatured in 6.5 M GuHCl and 9 mM DTT and diluted 30-fold into GroEL14 buffer pH 7.5 (200 mM GuHCl, 0.3 mM DTT left); no ATP, no GroES; BGE 50 mM ammonium acetate pH 6.7.

B1: dihydrodipicolinate synthase, denatured monomer (DapA) (enzyme)
chain: MFTGSIVAIVTPMDEKGNVCRASLKKLIDYHVASGTSAIVSVGTTGESATLNHDEHADVVMMTLDLADGRIPVIAGTGANATAEAISLTQRFNDSGIVGCLTVTPYYNRPSQEGLYQHFKAIAEHTDLPQILYNVPSRTGCDLLPETVGRLAKVKNIIGIKEATGNLTRVNQIKELVSDDFVLLSGDDASALDFMQLGGHGVISVTANVAARDMAQMCKLAAEGHFAEARVINQRLMPLHNKLFVEPNPIPVKWACKELGLVATDTLRLPMTPITDSGRETVRAALKHAGLL
In the case of B1, the share of the total signal intensity, GroEL14-DapA2 complex was determined as 80%; the stoichiometry N (DapA monomers per GroEL14) is 1 and 2.
